What was measured:
[1] = system: T1, NE peptide substrate with acetylated N-terminal CKKK-PEG4 linker and C-terminal heptafluorobutylamine reporter (peptide-PFC)
T1 sequence: CKKKXXXX

[2] = system: T2, NE peptide substrate with acetylated N-terminal CKKK-PEG4 linker and C-terminal pentafluoropropylamine reporter (peptide-PFC)
T2 sequence: CKKKXXXX

Substance | PFC release from the peptide substrate (real-time vapor analysis mass spectrometry) [1] | PFC release from the peptide substrate (real-time vapor analysis mass spectrometry) [2]
MMP13 | minimal cleavage by other proteases ... (MMP9 and MMP13 | minimal cleavage by other proteases ... (MMP9 and MMP13
MMP9 | minimal cleavage by other proteases ... (MMP9 and MMP13 | minimal cleavage by other proteases ... (MMP9 and MMP13

Reference: patent publication US20190271704
